Data from article PMC8604303, “Polymerization of C9 enhances bacterial cell envelope damage and killing by membrane attack complex pores” (PLoS Pathogens, 2021).

Target: the molecule itself
Test: cell-based or functional assay

B1: wildtype C9 (C9wt) (natural protein)
chain: not shown
modifications: Cy5 at the C-terminus in the binding assays (GGGK-azide sortagged onto LPETGG, then DBCO-Cy5 by copper-free click chemistry)
bacterial viability (CFU) of C5b-8 labelled E. coli MG1655 with 100 nM C9, decrease: ≥ 1000 fold
